According to the nanobody polyreactivity screen of Harvey et al. (2022):

Assay: yeast display, Sf9 membrane polyspecificity reagent, FACS + sequencing; frameworks hold sequencing errors
Outline: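 Synthetic nanobody libraries on Saccharomyces cerevisiae BJ5465 were galactose-induced for 36–48 hours, stained 1 hour at 4 °C with 10% biotinylated, detergent-solubilized Sf9 membrane reagent and enriched on streptavidin microbeads. FACS then separated cells into low and high (top ~1%) gates by anti-HA (expression) and streptavidin (reagent binding) fluorescence. Genes were colony-PCR amplified, MiSeq 2 × 250 sequenced and CDR-length filtered. A clone's polyreactivity label is that of its gate of origin.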

Sequence	polyreactivity (PSR sort gate)
QVQLVESGGGLVQAGGSLRLSCAASGRIFRRYTIGWYRQAPGKEWELVAGISSGGSTKYADSVKGRFTISRDNAKNTVYLQMNSLKPEDTAVYYCNRRCPIYGSRFGYYYWGQGTQVTVSS	high polyreactivity
QVQLVESGGGLVQAGGSLRLSCAASGRIFRSNAMGWYRQAPGKERELVAAISSNGGSTYYADSVKGRFTISRDNAKNPVYLQMNSLKPEDTAVYYCAARVYYPVRYGYWGQGTQVTVSS	high polyreactivity
QVQLVESGGGLVQAGGSLRLSCAASGRIFRSYAMGWYRQAPGKDRELVAAISSGDTTNYADSVKGRFTISRDNAKNTVYLQMNSLKPEDTAVYYCAAGFYYRGGYIQYEMNYWGQGTQVTVSS	high polyreactivity
QVQLVESGGGLVQAGGSLRLSCAASGRIFRSYAMGWYRQAPGKERELVAAINYGGTSTYYADSVKGRFTISRDNAKNTVYLQMNSLKPEDTAVYYCAARRPTSPRRYESRGQGTQVTVSS	high polyreactivity
QVQLVESGGGLVQAGGSLRLSCAASGRIFRSYAMGWYRQAPGKERELVAAISQRGGRTYYADSVKGRFTISRDNAKNTVYLQMNSLKPEDTAVYYCAKSNPKLGYYYLQGDLYDYWGQGTQVTVSS	low polyreactivity
QVQLVESGGGLVQAGGSLRLSCAASGRIFRSYAMGWYRQAPGKERELVAAISQRGGSTYYADSVKGRFTISRDNAKNTVYLQMNSLKPEDTAVYYCNKERRNSGKFDYWGQGTQVTVSS	high polyreactivity
QVQLVESGGGLVQAGGSLRLSCAASGRIFRSYAMGWYRQAPGKERELVAAITSGGSTNYADSVKGRFTISRDNAKNTVYLQMNSLKPEDTAVYYCNADRWKSGYWRYDYWGQGTQVTVSS	low polyreactivity
QVQLVESGGGLVQAGGSLRLSCAASGRIFRTNAMGWYRQAPGKERELVAAITFSGGGTYYADSVKGRFTISRDNAKNTVYLQMNSLKPEDTAVYYCATDWYYEYYYWGQGTQVTVSS	low polyreactivity
QVQLVESGGGLVQAGGSLRLSCAASGRIFRTNAMGWYRQAPGKERELVASINSDGSTNYADSVKGRFTISRDNAKNTVYLQMNSLKPDDTAVYYCAAGYFWGRIKYYYWGQCTQVTVSS	high polyreactivity
QVQLVESGGGLVQAGGSLRLSCAASGRIFRTYAMGWYRQAPGKERELVASISWGGGSRTYADSVKGRFTISRDNAKNTVYLQMNSLKPEDTGVYYCAADVHYTFGMDYWGQGTQVTVSS	high polyreactivity
QVQLVESGGGLVQAGGSLRLSCAASGRIFRVNTMGWYRQAPGKERELVAAISTSGGTTYYADSVKGRFTISRDNAKNTVYIQLNSLKPEDTAVYYCNASYLTRRDGYIEDAIYDYWGQGTQVTVSS	low polyreactivity
QVQLVESGGGLVQAGGSLRLSCAASGRIFRVNTMGWYRQSPGKERELVAAIRSSGTRTYYADSVKGRFTISRDNAKNTVYLQMNSLKPEDTAVYYCAATGRRGSGYYYWGQGTQVTVSS	high polyreactivity
QVQLVESGGGLVQAGGSLRLSCAASGRIFRVYAMGWYRQAPGKERELVAAINRSGGTTYYADSVKGRFTISRDNAKHTVYLQMNSLKPEDTAVYYCNAPVRRDVAYGYWGQGTQVTVSS	high polyreactivity
QVQLVESGGGLVQAGGSLRLSCAASGRIFRVYAMGWYRQAPGKERELVAAISWSGGRTYYADSVKGRFTISRDNAKNTVYLQMNSLKPEDTAVYYCAAVSCYALGFDYWGQGTQVTVSS	high polyreactivity
QVQLVESGGGLVQAGGSLRLSCAASGRIFRVYAMGWYRQAPGKERELVASISSGGSTNYADSVKGRFTISRENAKNTVYLQMNSLKPEDTAVYYCAADYWYRLFWYYGAPLDYWGQGTQVTVSS	low polyreactivity
QVQLVESGGGLVQAGGSLRLSCAASGRIFRWNAMGWYRQAPGKERELVAAISSSGGRTYYADSVKGRFTISRDTAKNTVYLQMNSLKPEDTAVYYCAAYPFSDEYDYWGQGTQVTVSS	high polyreactivity
QVQLVESGGGLVQAGGSLRLSCAASGRIFRWNAMGWYRQAPGKERELVAAISWNGGRTYYADSVKGRFTISRDNAKNTVYLQMNSLKPEDTAVYYCAAPHSVPDLHSGDYWGQGSQVTVSS	low polyreactivity
